The values that follow come from the supplement of paper PMC9112550, “Optimization of the antimicrobial peptide Bac7 by deep mutational scanning” (BMC Biology, 2022).

For this data set, the system named is Escherichia coli TOP10. The data set is described as follows: shrunken log2 fold change of peptide-encoding DNA abundance (4.5 h post-induction vs induction); higher = less antimicrobial activity (less host growth inhibition). Conditions: time post-induction: 4.5 h; library: site-saturation at positions 5, 18, 19, 20.
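Also: peptides expressed intracellularly from a pBAD plasmid library in pooled LB shake-flask culture, induced with 0.3% L-arabinose, DNA abundance read by NGS, three biological replicates, DESeq2 with apeglm shrinkage.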

For the sequence RRIRFRPPRLPRPRPRPRGDPRP, the “shrunken log2 fold change” value was found to be 0.477. With RRIRSRPPRLPRPRPRPNKIPRP the figure was -0.294. Under RRIRFRPPRLPRPRPRPAHDPRP stands 0.0907; under RRIRVRPPRLPRPRPRPAIDPRP, 0.0602. As to RRIRPRPPRLPRPRPRPVVKPRP, the “shrunken log2 fold change” value is -0.181. Under RRIRARPPRLPRPRPRPTGCPRP stands 0.458; under RRIRPRPPRLPRPRPRPAFSPRP, 0.117. For RRIRPRPPRLPRPRPRPHVDPRP, the “shrunken log2 fold change” value is -0.029. With RRIRTRPPRLPRPRPRPRRYPRP the figure was 0.108. With RRIRSRPPRLPRPRPRPYYRPRP the figure was -0.0115; with RRIRCRPPRLPRPRPRPSESPRP, 0.258; with RRIRPRPPRLPRPRPRPAHFPRP, 0.111. With RRIRSRPPRLPRPRPRPHLMPRP the figure was -0.0307; with RRIRQRPPRLPRPRPRPNLKPRP, -0.196; with RRIRDRPPRLPRPRPRPFIDPRP, 0.168. As for RRIRARPPRLPRPRPRPYPVPRP, the “shrunken log2 fold change” value is -0.191. With RRIRHRPPRLPRPRPRPIDLPRP, the “shrunken log2 fold change” value was determined as 0.036. With RRIRTRPPRLPRPRPRPRTDPRP the figure was -0.0849; with RRIRKRPPRLPRPRPRPNKVPRP, -0.00759; with RRIRSRPPRLPRPRPRPVDSPRP, -0.0776. With RRIRARPPRLPRPRPRPEISPRP the figure was 0.81. With RRIRLRPPRLPRPRPRPTELPRP the figure was -0.118; with RRIRFRPPRLPRPRPRPRQSPRP, 0.443; with RRIRCRPPRLPRPRPRPRCFPRP, -0.158. Consider RRIRTRPPRLPRPRPRPCEFPRP, for which the “shrunken log2 fold change” value was -0.258. With RRIRSRPPRLPRPRPRPGQRPRP the figure was 0.0367; with RRIRNRPPRLPRPRPRPTVPPRP, -0.233; with RRIRTRPPRLPRPRPRPCWHPRP, -0.119. With RRIRWRPPRLPRPRPRPVKGPRP the figure was -0.0905; with RRIRWRPPRLPRPRPRPQNLPRP, -0.103. With RRIRVRPPRLPRPRPRPVAGPRP the figure was 0.0748; with RRIRLRPPRLPRPRPRPNNNPRP, -0.673. Take RRIRQRPPRLPRPRPRPHFVPRP: the “shrunken log2 fold change” value was -0.208. With RRIRCRPPRLPRPRPRPEKAPRP the figure was 0.0655; with RRIRIRPPRLPRPRPRPPNIPRP, -0.0703; with RRIRGRPPRLPRPRPRPEVTPRP, 0.168. Under RRIRWRPPRLPRPRPRPQTHPRP stands 1; under RRIRDRPPRLPRPRPRPFGYPRP, -0.342; under RRIRQRPPRLPRPRPRPQCWPRP, -0.0996.

With RRIRARPPRLPRPRPRPGFFPRP, the “shrunken log2 fold change” value worked out at 0.509. With RRIRSRPPRLPRPRPRPFPRPRP the figure was 0.356; with RRIRQRPPRLPRPRPRPWFHPRP, 0.00902. With RRIRGRPPRLPRPRPRPTIVPRP the figure was 0.779.

For the sequence RRIRPRPPRLPRPRPRPPTHPRP, the “shrunken log2 fold change” value was 0.317. With RRIRVRPPRLPRPRPRPSYFPRP, the “shrunken log2 fold change” value was -0.131.

With RRIRERPPRLPRPRPRPLFPPRP, the “shrunken log2 fold change” value is -0.264. On to RRIRARPPRLPRPRPRPMDLPRP, for which the “shrunken log2 fold change” value was -0.292. Under RRIRMRPPRLPRPRPRPNAKPRP stands 0.225; under RRIRIRPPRLPRPRPRPHSKPRP, -0.677; under RRIRRRPPRLPRPRPRPSKSPRP, 0.292.

Take RRIRVRPPRLPRPRPRPDAMPRP: the “shrunken log2 fold change” value is 0.0806. With RRIRYRPPRLPRPRPRPYADPRP the figure was -0.136. As for RRIRDRPPRLPRPRPRPKVNPRP, the “shrunken log2 fold change” value is -0.287. With RRIRRRPPRLPRPRPRPYIKPRP the figure was -0.509; with RRIRWRPPRLPRPRPRPKKPPRP, 0.558. For RRIRGRPPRLPRPRPRPNVHPRP, the “shrunken log2 fold change” value is 0.167. With RRIRCRPPRLPRPRPRPVRIPRP the figure was -0.108; with RRIRCRPPRLPRPRPRPHEKPRP, -0.277. RRIRQRPPRLPRPRPRPLMMPRP: the “shrunken log2 fold change” value was -0.0501. With RRIRCRPPRLPRPRPRPAWRPRP the figure was 0.575; with RRIRCRPPRLPRPRPRPVVQPRP, -0.235; with RRIRKRPPRLPRPRPRPLGLPRP, 0.159. Under RRIRYRPPRLPRPRPRPAVNPRP stands 0.063. With RRIRVRPPRLPRPRPRPVLAPRP the figure was 0.239. Take RRIRTRPPRLPRPRPRPKKFPRP: the “shrunken log2 fold change” value is -0.403. Under RRIRFRPPRLPRPRPRPPYGPRP stands -0.0784; under RRIRTRPPRLPRPRPRPYMLPRP, -1.13.

On to RRIRFRPPRLPRPRPRPPGQPRP, for which the “shrunken log2 fold change” value turned out to be 1. Take RRIRWRPPRLPRPRPRPTPCPRP: the “shrunken log2 fold change” value turned out to be 0.212. As for RRIRIRPPRLPRPRPRPNFTPRP, the “shrunken log2 fold change” value is -0.545. Consider RRIRARPPRLPRPRPRPAKNPRP, for which the “shrunken log2 fold change” value is 0.312. RRIRARPPRLPRPRPRPLNRPRP: the “shrunken log2 fold change” value stood at 0.0549.

Take RRIRERPPRLPRPRPRPIRSPRP: the “shrunken log2 fold change” value was -0.112. With RRIRFRPPRLPRPRPRPHLRPRP the figure was -0.19.

With RRIRHRPPRLPRPRPRPPITPRP, the “shrunken log2 fold change” value was -0.346. Take RRIRDRPPRLPRPRPRPNSTPRP: the “shrunken log2 fold change” value is -0.295.

Turning to RRIRSRPPRLPRPRPRPTKCPRP, the “shrunken log2 fold change” value is -0.258. On to RRIRIRPPRLPRPRPRPHKHPRP, for which the “shrunken log2 fold change” value was -0.881. Under RRIRHRPPRLPRPRPRPLHHPRP stands -0.554; under RRIRVRPPRLPRPRPRPSHTPRP, -0.0229; under RRIRMRPPRLPRPRPRPFDKPRP, -0.0136. Under RRIRYRPPRLPRPRPRPSVNPRP stands -0.177; under RRIRPRPPRLPRPRPRPCEQPRP, 0.102. Under RRIRRRPPRLPRPRPRPHRIPRP stands -0.279; under RRIRFRPPRLPRPRPRPHCFPRP, -0.0267. For the sequence RRIRVRPPRLPRPRPRPGLMPRP, the “shrunken log2 fold change” value was found to be 0.0219. With RRIRKRPPRLPRPRPRPQGLPRP the figure was 0.256. For the sequence RRIRPRPPRLPRPRPRPFQNPRP, the “shrunken log2 fold change” value is -0.445. With RRIRDRPPRLPRPRPRPKPEPRP the figure was 0.0415; with RRIRKRPPRLPRPRPRPRKSPRP, 0.727. With RRIRRRPPRLPRPRPRPPYIPRP the figure was 0.141.
